Measurements published in US20110059097A1 (UNIVERSITY HEALTH NETWORK, published 2011).

Molecular target: T1, murine MFAP4 (microfibrillar-associated protein-4) on mouse DNT cells (murine, UniProt Q9D1H9 23-257)
T1 sequence: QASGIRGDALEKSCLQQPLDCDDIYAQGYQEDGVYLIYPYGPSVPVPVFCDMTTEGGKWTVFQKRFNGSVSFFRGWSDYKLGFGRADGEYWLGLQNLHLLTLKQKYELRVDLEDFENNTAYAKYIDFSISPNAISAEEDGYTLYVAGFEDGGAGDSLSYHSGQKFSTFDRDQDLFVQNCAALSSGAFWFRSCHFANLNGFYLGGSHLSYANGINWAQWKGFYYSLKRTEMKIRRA
Test: flow cytometry on mouse DNT cell clones (target later identified as MFAP4)

B1: G1 monoclonal antibody (antibody, V domains shown)
VH: EVKLVESGGGLVQPGRSLKLSCAASGFPFSNYGMAWVRQAPTKGLAWVATISYDGRSTYYRDSVKGRFTISRNNAKSTLYLQMDSLRSEDTATYYCVRHELPEDHWGQGVMVTVSS
VL: DIVMTQSPFSLAVSEGEMVTINCKSGQSLLSSGNQKNYLAWYQQKPGQSPKLLIYYSSTRQSGVPDRFIGSGSGTDFTLTISDVQAEDLADYYCLQHYSSPFTFGSGTKLEIK
notes: Hybridoma monoclonal antibody raised against cell surface molecules of tumor-reactive mouse DNT cells; also called G1 mAb; mAb (clone: G1)
B1: binds.
